{
  "source": "the nanobody polyreactivity screen of Harvey et al. (2022)",
  "data": [
    {"assay": "yeast display, Sf9 membrane polyspecificity reagent, FACS + sequencing; frameworks hold sequencing errors", "summary_of_the_method": "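Synthetic nanobody libraries on Saccharomyces cerevisiae BJ5465 were galactose-induced for 36–48 hours, stained 1 hour at 4 °C with 10% biotinylated, detergent-solubilized Sf9 membrane reagent and enriched on streptavidin microbeads. FACS then separated cells into low and high (top ~1%) gates by anti-HA (expression) and streptavidin (reagent binding) fluorescence. Genes were colony-PCR amplified, MiSeq 2 × 250 sequenced and CDR-length filtered. A clone's polyreactivity label is that of its gate of origin.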", "values": [
      {"sequence": "QVQLVESGGGLVQAGGSLRLSCAASGGTFYAYAMGWYRQAPGKERELVAAITNSGGSTYYADSVKGRFTISRDNAKNTVYLQMNSLKPEDTAVYYCARRRSYRDNYWGQGTQVTVSS", "polyreactivity (PSR sort gate)": "high polyreactivity"},
      {"sequence": "QVQLVESGGGLVQAGGSLRLSCAASGGTFYNYAMGWYRQAPGKERELVAAITYSGGITYYADSVKGRFTISRDNAKNTVYLQMNSLKPEDTAVYYCNTDGINSSVVVVDDYWMDYWGQGTQVTVSS", "polyreactivity (PSR sort gate)": "low polyreactivity"},
      {"sequence": "QVQLVESGGGLVQAGGSLRLSCAASGGTFYTNVMGGYTQAPGKERELVAAITRSGGSTHYADSVKGRFTISRDNAKNTFYLQMNSLKPEDTEVYYCALGSPYYDGMDYWGQGTQVTVSS", "polyreactivity (PSR sort gate)": "low polyreactivity"},
      {"sequence": "QVQLVESGGGLVQAGGSLRLSCAASGGTFYVKDMAWYRQAPWNERDLVATITYSGTSTYYADSVKGRFTISRDNAKNTVYLQMKSLKPEDTAVYYCATDVLLYFEPVNLDYWGQGTQVTVSS", "polyreactivity (PSR sort gate)": "low polyreactivity"},
      {"sequence": "QVQLVESGGGLVQAGGSLRLSCAASGGTFYVNAMGWYRQAPGKERELVAAISYRGGRTYYADSVKGRFTISRDNAKNTVYVQMNSVKPEDTAVYYCAAEYSYDHSTGYDYWGQGTQVTVSS", "polyreactivity (PSR sort gate)": "low polyreactivity"},
      {"sequence": "QVQLVESGGGLVQAGGSLRLSCAASGGTFYVYAMGWYRQAPGKERELVAAISTSDGITYYADSVKGRFTLSRDNAKNTVYLQMNSLKPEDTAVYYCAAEFFSSFTYAYDYWGQGTQVTVSS", "polyreactivity (PSR sort gate)": "high polyreactivity"},
      {"sequence": "QVQLVESGGGLVQAGGSLRLSCAASGGTFYYNTMGWYRQAPGQERELVAAIRSTGGSTYDADSVKGRFTISRDNAKNTVYLQMNSLKPEDTAVYYCAKKVYTRRRGSDYWGQGTQVTVSS", "polyreactivity (PSR sort gate)": "high polyreactivity"},
      {"sequence": "QVQLVESGGGLVQAGGSLRLSCAASGGTFYYYAMGWYRQAPGKERELVAAITKNGGSTYYADSVKGRFTISRDNAKNTVYLQMNSLKPEDTAVYYCAASRFGRMDYWGQGTQVTVSS", "polyreactivity (PSR sort gate)": "high polyreactivity"},
      {"sequence": "QVQLVESGGGLVQAGGSLRLSCAASGGTIENYAMGWYRQAPGKERELVAAISSGGSTNYADSVKGRFTISRDNAKNTVYLQMNSLKPEDTAVYYCATRGIWKKVPYYYWGQGTQVTVSS", "polyreactivity (PSR sort gate)": "low polyreactivity"},
      {"sequence": "QVQLVESGGGLVQAGGSLRLSCAASGGTIYLNAMGWYRQAPRKERELVAGITWGGGRTYYADSVKGRFTISRDNAKNTVYLQMNSLKPEDTAVYYCASGAWRGPYSGYYYWGQGTQVTVSS", "polyreactivity (PSR sort gate)": "low polyreactivity"},
      {"sequence": "QVQLVESGGGLVQAGGSLRLSCAASGGTLEVYAMGWYRQAPGKEREFVAAISWSGGRTYYADSVKGRFTISRDNAKNTVYLQMNSLKPEDTAVYYCATRDRAGYYYWGQGTQVTVSS", "polyreactivity (PSR sort gate)": "high polyreactivity"},
      {"sequence": "QVQLVESGGGLVQAGGSLRLSCAASGGTLFQNAMGWYRQAPGKERELVATIRVSGGITYYADSVKGRFTISRDNAKNTVYLQMNSLKPEDTAVYYCAKDSADSRAVGDVLTFDYWGQGTQVTVSS", "polyreactivity (PSR sort gate)": "low polyreactivity"},
      {"sequence": "QVQLVESGGGLVQAGGSLRLSCAASGGTLGLNAMGRTRQAPGKEREFVAAINRSGGSTRYADSVKGRFTISRDNAKNTVYLQMISLKPEDTAVYYCNAASWTFQTTPKYDYWGQGTQVTVSS", "polyreactivity (PSR sort gate)": "high polyreactivity"},
      {"sequence": "QVQLVESGGGLVQAGGSLRLSCAASGGTLRGYAMGWYRQAPGKERELVASITYTSGSTYYADSVKGRFTISRDNAKNTVYLQINSLKPEDTAVYYCAAVARTVPSYSYNYWGQGTKVTVSS", "polyreactivity (PSR sort gate)": "high polyreactivity"},
      {"sequence": "QVQLVESGGGLVQAGGSLRLSCAASGGTLSYYAMGWYRQAPGKERELVAGISRRGGSTYYADSVKGRFTISRDNAKNTVYLQMNSLNPEDTAVYYCAADSNRHYYYWGQGTQVTVSS", "polyreactivity (PSR sort gate)": "high polyreactivity"},
      {"sequence": "QVQLVESGGGLVQAGGSLRLSCAASGGTLYIYAMGWDRQAPGKERELVAAIRGRGGSTYADSVKGRCTISRDNAKNTVYLQMNSLKPEDTAVYYCAASGIRYWLPYDYWGQGTQVTVSS", "polyreactivity (PSR sort gate)": "high polyreactivity"},
      {"sequence": "QVQLVESGGGLVQAGGSLRLSCAASGGTRFTNAMGWYRQAPGKEREMVAAISWRGGRTYYADSVKGRFTISRDNAKNTVYLQMNSQKPEDTAVYYCAAASAAGYDYWGQGTQVTVSS", "polyreactivity (PSR sort gate)": "low polyreactivity"},
      {"sequence": "QVQLVESGGGLVQAGGSLRLSCAASGGTYVGYSMGWYRQAPGKERELDATITRRGGNTYYADSVKGRFTISRDNAKNTVYLQMNSLKPEDTAVYYCAARKKGSRVGYDYWGQGTQVTVSS", "polyreactivity (PSR sort gate)": "high polyreactivity"},
      {"sequence": "QVQLVESGGGLVQAGGSLRLSCAASGGYGMGWYRQAPGKERELVAAISYSGGSTYYADSVKGRFTISRDNAKNTVYLQMNSLKPEDTAVYYCNVLRGSLNGWWPGYDYWGQGTQVTVSS", "polyreactivity (PSR sort gate)": "low polyreactivity"},
      {"sequence": "QVQLVESGGGLVQAGGSLRLSCAASGHIFDHYAMGWYRQAPGKERELVAAISTSGTSTYYADSVKGRFTISRDNAKNTVYLQMNSLKPEDTAVYYCNAGGGHVGDVRYPYRYWRYNYWGQGTQVTVSS", "polyreactivity (PSR sort gate)": "low polyreactivity"},
      {"sequence": "QVQLVESGGGLVQAGGSLRLSCAASGHIFFYYTMGWYRQAPGKERELVAGIPIGGSTNYADSVKGRFTISRDNAKNTVYLQMNSLKPVDTAVYYFNVVKYVYIYSFWEYYYWGQGTQVTVSS", "polyreactivity (PSR sort gate)": "low polyreactivity"},
      {"sequence": "QVQLVESGGGLVQAGGSLRLSCAASGHIFPTNAMGWYRQAPGKERELVAVISESVGSTYYADSVKGRFTISRDNAKNTVYLQMNSLKPEDTAVYYCAVRSRTPRAYYYWGQGTQVTVSS", "polyreactivity (PSR sort gate)": "low polyreactivity"},
      {"sequence": "QVQLVESGGGLVQAGGSLRLSCAASGHIFYAYAMASYRQAPGKERELVASITYRGVSTYYADSVKARFTISRDNAKNTVYLQMHSLKPEDTAVYYCAAGRSRYLWFGRDFDYWGQGTQVTVSS", "polyreactivity (PSR sort gate)": "low polyreactivity"},
      {"sequence": "QVQLVESGGGLVQAGGSLRLSCAASGHNFFYYTMVWYRPAPGKERELVAGITIGGSTNYADSVKGRFTISRDNAKNNVYLVMNSLKPEDTAVYYCNVDKYVYIYSYWEYYYWGQGTQVTVSS", "polyreactivity (PSR sort gate)": "low polyreactivity"},
      {"sequence": "QVQLVESGGGLVQAGGSLRLSCAASGHTFAYNAMGWYRQAPGKEREFVAAITWSTDNTYYADSVKGRFTISRDNAKNTVYLQMNSLKPEDTAVYYCAKDAAESYRYGYWGQGTQVTVSS", "polyreactivity (PSR sort gate)": "low polyreactivity"},
      {"sequence": "QVQLVESGGGLVQAGGSLRLSCAASGHTFYYKALGWYTQAPGKEREFVATITESGTSTYYADSVKGRCTLSRDNAKNTVYLQMKSLKPEDTAGYYCAAQYWYVGGIALYDYWGQGTQVTVSS", "polyreactivity (PSR sort gate)": "low polyreactivity"},
      {"sequence": "QVQLVESGGGLVQAGGSLRLSCAASGIFAYYVMGWYRQAPGKERELVADISRGGSTNYADSVKGRFTISRDNAKNTVYLQMISLKPEDSAVYYCNARSYYPWEGYDYWGQGTQVTVSS", "polyreactivity (PSR sort gate)": "low polyreactivity"},
      {"sequence": "QVQLVESGGGLVQAGGSLRLSCAASGIFDYYAMGWYRQAPGKERELVAAINSSGGSTYYADSVKGRFTISRDNAKNTVYLQMNSLKPEDTAVYYCAAGRYAYLFNYWGQGTQVTVSS", "polyreactivity (PSR sort gate)": "high polyreactivity"},
      {"sequence": "QVQLVESGGGLVQAGGSLRLSCAASGIFFIYSMGWYRQAPGKERELVADIDSGGPTYYADSVKGRFTISRDNAKNTVYLQMNSLKPEDTAVYYCAVDYSNVDLYSLLFYESDYWGQGTQVTVSS", "polyreactivity (PSR sort gate)": "low polyreactivity"},
      {"sequence": "QVQLVESGGGLVQAGGSLRLSCAASGIFFLYMGWYRQAPGKERELVAAISDSGGTTYYADSVKGRFTISRDNAKNTVYLQMNSLKPEDTAVYYCAAEIENLNWFYWDYLEYDYWGQGTQVTVSS", "polyreactivity (PSR sort gate)": "low polyreactivity"},
      {"sequence": "QVQLVESGGGLVQAGGSLRLSCAASGIFGWNAMGWYRQAPGKEREFVAGITYSGTRTYYADSVKGRFTISRDNAKNTVYLQMNSLKPEDPAVYYCAATTGHRNYRSYYWGQGTQVTVSS", "polyreactivity (PSR sort gate)": "high polyreactivity"},
      {"sequence": "QVQLVESGGGLVQAGGSLRLSCAASGIFGYNARGWYRQAPGKERELVAAITSSGTSTYYADSVKGRFTISRDNAKNTVYLQMNSLKPEDTAVYYCAALHSGTWTGYGYWGQGTQVTVSS", "polyreactivity (PSR sort gate)": "low polyreactivity"},
      {"sequence": "QVQLVESGGGLVQAGGSLRLSCAASGIFRRYAMGWYRQAPGKERELVATITSGGSTNYADSVKGRFTISRDNAKNTVYLQMNSLKPEDTAVYYCNALYGARRYTRWYTGMDYWGQGTQVTVSS", "polyreactivity (PSR sort gate)": "high polyreactivity"},
      {"sequence": "QVQLVESGGGLVQAGGSLRLSCAASGIFTRYAMGWYRQAPGKERELVAAISRGGGSTYYADSVKGLFTISRDNAKNTCYLQMNSLKPEDTAVYYCNTYKRPRSPGPKFYYWGEGTQVTVSS", "polyreactivity (PSR sort gate)": "high polyreactivity"},
      {"sequence": "QVQLVESGGGLVQAGGSLRLSCAASGIFVDNAMGWYRQAPGKERELVAAITSSTDSTYYADSVKGRFAISRDNAKNTVYLQMNSLKPEDTAVDYCAVARPGGFYFLVHYGYGYWGQGTQVTVSS", "polyreactivity (PSR sort gate)": "low polyreactivity"},
      {"sequence": "QVQLVESGGGLVQAGGSLRLSCAASGIICDYNAMGWYRQAPGKERELVAAITSTDNTNYADSVKGRFTISRDNAKNTVYLQMNSLKPEDTAVYSCNTDYWLSVVYAMDYWGQGTQVTVSS", "polyreactivity (PSR sort gate)": "low polyreactivity"},
      {"sequence": "QVQLVESGGGLVQAGGSLRLSCAASGIIFANYTMGWYRKAPGKERELVAAISWSGDSTYYADSVKGRFTISRDNAKNTVYLQMNSLKPEDTAVYYCATVNIGYRVWMNYWGQGTQVTVSS", "polyreactivity (PSR sort gate)": "low polyreactivity"},
      {"sequence": "QVQLVESGGGLVQAGGSLRLSCAASGIIFAQYTMGWYRQAPGKERELVAAINRNGGSTYYADSVKGRFTISRDNAKNSVYLQMNSLKPEDTAVYYCNADALGFRYDYWGQGTQVTVSS", "polyreactivity (PSR sort gate)": "low polyreactivity"},
      {"sequence": "QVQLVESGGGLVQAGGSLRLSCAASGIIFARYAMGWYRQAPGKERELVASINWTGGNTYADSVKGRFTISRDNAKNSVYLQMNSLNPEDTAVYYCARDFSPGSSDPNASISFDHWGQGTQVTVSS", "polyreactivity (PSR sort gate)": "low polyreactivity"},
      {"sequence": "QVQLVESGGGLVQAGGSLRLSCAASGIIFAWNVRGWYRQAPGKERELVAAITQSGGGTYYADSVKGRFTISRDNAKNTVYLLMYSLKPEDTGFYYCAAVGYQFYRYVWVDEFDSWGQGTQVTVSS", "polyreactivity (PSR sort gate)": "low polyreactivity"},
      {"sequence": "QVQLVESGGGLVQAGGSLRLSCAASGIIFAWYVMGWYRQAPGKERELVAAITQSGGSTFYADSVKGRFTISRDNAKNTVYLQMNSLKPEDTAVYYCNTEDFFNVPEMDSWGQGTQVTVSS", "polyreactivity (PSR sort gate)": "low polyreactivity"},
      {"sequence": "QVQLVESGGGLVQAGGSLRLSCAASGIIFAYAMGWYRQAPGKERELVAAISGRDGSTYYADSVKGRFTISRDNAKNTVYLQMNSLKPEDTAVYYCNAVRGSYSWQMYYWGQGTQVTVSS", "polyreactivity (PSR sort gate)": "low polyreactivity"},
      {"sequence": "QVQLVESGGGLVQAGGSLRLSCAASGIIFAYNVIGWSRPAPGKERELVAAIRWGGGSTYADSVKGRFTISRDNAKNTVYLQMNSLKPEDTAVYYCATRYRSYYAKYGYNYWGQGTQVTVSS", "polyreactivity (PSR sort gate)": "high polyreactivity"}
    ]}
  ]
}
